Source: US20190309065A1

Target: human PD-L1 (human) (UniProt Q9NZQ7)
Test: cell-based or functional assay

Sequence of UniProt Q9NZQ7 (Q9NZQ7 19-290): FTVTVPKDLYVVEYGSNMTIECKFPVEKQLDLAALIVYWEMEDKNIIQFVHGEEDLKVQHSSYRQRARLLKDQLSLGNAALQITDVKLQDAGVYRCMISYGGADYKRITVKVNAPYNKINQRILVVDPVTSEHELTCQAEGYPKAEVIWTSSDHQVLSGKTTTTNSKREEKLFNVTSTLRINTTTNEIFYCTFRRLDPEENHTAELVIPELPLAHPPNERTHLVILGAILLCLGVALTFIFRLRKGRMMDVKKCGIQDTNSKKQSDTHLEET

fold increase in B*4201 TL9 tetramer+ CD8 T cells, 6-day CFSE proliferation assay of PBMC with TL9 peptide plus anti-PD-L1 blocking antibody (peptide alone: 4.8-fold): 10.3 fold
percentage of B*4201 TL9-specific CD8 T cells after 6-day stimulation with peptide, in the presence of anti-PD-L1 blocking antibody (without it: 5.7%): 12.4%
B1: monoclonal antibody to human PD-L1, clone 29E.2A3 (mouse IgG2b) (antibody, from another filing, V domains shown)
VH: EVQLQQSGPELVKPGASVKMSCKASGYTFTSYVMHWVKQKPGQGLEWIGYVNPFNDGTKYNEMFKGKATLTSDKSSSTAYMELSSLTSEDSAVYYCARQAWGYPWGQGTLVTVSA
VL: DIVLTQSPASLAVSLGQRATISCRATESVEYYGTSLVQWYQQKPGQPPKLLIYAASSVDSGVPARFSGSGSGTDFSLTIHPVEEDDIAMYFCQQSRRVPYTFGGGTKLEIK
